Target: Idelvion (commercial albumin-fused factor IX) (human) (UniProt P02768)
Assay: SPR

Kd: 0.15 µM
Substance: soluble monomeric human neonatal Fc receptor, His-tagged (hFcRn‐His) (from UniProt P55899;P61769)

From article PMC8362221
